Results as given in paper PMC9627735 (RSC Chemical Biology, 2022).

Legend:
[1] = molecular target: recombinant human wildtype Bri2 BRICHOS (human) (UniProt Q9Y287); experiment: SEC; rh Bri2 BRICHOS wildtype and D148N at rising concentrations, 0.5 to 200 μmol L^-1 (ESI Fig. S2a, b, S3, S4); monomer to dimer
[2] = molecular target: recombinant human wildtype Bri2 BRICHOS (human) (UniProt Q9Y287); experiment: SEC; rh Bri2 BRICHOS at pH 6.0, 20 mmol L^-1 NaPi, 0.2 mmol L^-1 EDTA (ESI Fig. S2c, d); monomer to dimer
[3] = molecular target: the molecule itself; experiment: SEC; purified rh proSP-C BRICHOS variants on Superdex 200 GL
[4] = molecular target: the molecule itself; experiment: other fluorescence titration; Trp fluorescence of rh Bri2 BRICHOS T206W monomers, 2 μmol L^-1, 20 mmol L^-1 NaPi, 0.2 mmol L^-1 EDTA, pH 6.3-8.0; excitation 280 nm; monomer to dimer
[5] = molecular target: the molecule itself; experiment: SEC; rh Bri2 BRICHOS species obtained by thrombin cleavage of isolated NT*-Bri2 BRICHOS species; Superdex 200 PG, 200 GL or 75 PG; 20 mmol L^-1 NaPi, 0.2 mmol L^-1 EDTA
[6] = molecular target: the molecule itself; experiment: SEC; rh Bri2 BRICHOS wildtype and D148N at rising concentrations, 0.5 to 200 μmol L^-1 (ESI Fig. S2a, b, S3, S4); monomer to dimer

## recombinant human wildtype Bri2 BRICHOS (from UniProt Q9Y287 113-231) (domain or fragment)
[1]
  stoichiometry N: 2
[2]
  stoichiometry N: 2

B1: recombinant human wildtype proSP-C BRICHOS (domain or fragment, UniProt P11686 86-197, looked up)
chain: EHLVTTATFSIGSTGLVVYDYQQLLIAYKPAPGTCCYIMKIAPESIPSLEALTRKVHNFQMECSLQAKPAVPTSKLGQAEGRDAGSAPSGGDPAFLGMAVSTLCGEVPLYYI
notes: prosurfactant protein C (proSP-C), human, BRICHOS domain, residues 86-197; Forms trimers and some monomers on SEC; also called rh wildtype proSP-C BRICHOS; wt proSP-C BRICHOS; source: E. coli Origami 2 (DE3) pLysS, purified (Ni-NTA, ion exchange); not shown: thioredoxin, N-terminal, cleaved
[3]
  stoichiometry N: 3

B2: recombinant human proSP-C BRICHOS D105N (domain or fragment, UniProt P11686 86-197, looked up)
chain: EHLVTTATFSIGSTGLVVYNYQQLLIAYKPAPGTCCYIMKIAPESIPSLEALTRKVHNFQMECSLQAKPAVPTSKLGQAEGRDAGSAPSGGDPAFLGMAVSTLCGEVPLYYI
notes: prosurfactant protein C (proSP-C), human, BRICHOS domain, residues 86-197, with D105N; Made by site-directed mutagenesis of the wildtype plasmid; expressed and purified in parallel with the wildtype; also called rh proSP-C BRICHOS D105N; D105N mutant; source: E. coli Origami 2 (DE3) pLysS, purified (Ni-NTA, ion exchange); not shown: thioredoxin, N-terminal, cleaved
[3]
  stoichiometry N: 3

B3: recombinant human Bri2 BRICHOS T206W (domain or fragment, UniProt Q9Y287 113-231, looked up)
chain: QTIEENIKIFEEEEVEFISVPVPEFADSDPANIVHDFNKKLTAYLDLNLDKCYVIPLNTSIVMPPRNLLELLINIKAGTYLPQSYLIHEHMVIWDRIENIDHLGFFIYRLCHDKETYKL
notes: integral membrane protein 2B (ITM2B, Bri2), human, BRICHOS domain, residues 113-231, with Thr206 replaced by Trp; also called rh Bri2 BRICHOS T206W; source: E. coli SHuffle T7, purified (Ni-NTA, thrombin cleavage, second Ni-NTA, SEC); not shown: His6, N-terminal, cleaved; NT*, N-terminal, cleaved
[4]
  binding result: binds

B4: recombinant human Bri2 BRICHOS D148N (domain or fragment, UniProt Q9Y287 113-231, looked up)
chain: QTIEENIKIFEEEEVEFISVPVPEFADSDPANIVHNFNKKLTAYLDLNLDKCYVIPLNTSIVMPPRNLLELLINIKAGTYLPQSYLIHEHMVITDRIENIDHLGFFIYRLCHDKETYKL
notes: integral membrane protein 2B (ITM2B, Bri2), human, BRICHOS domain, residues 113-231, with D148N; Occurs as monomers, dimers and large oligomers, isolated by SEC; all species are this one construct; also called rh Bri2 BRICHOS D148N; source: E. coli SHuffle T7, purified (Ni-NTA, thrombin cleavage, second Ni-NTA, SEC); not shown: His6, N-terminal, cleaved; NT*, N-terminal, cleaved
[5]
  stoichiometry N: 2
[6]
  ratio of dimers to monomers at 0.5 μmol L^-1: ~1
